Assay: yeast display, Sf9 membrane polyspecificity reagent, FACS + sequencing; frameworks hold sequencing errors
Method in brief: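 Genes from sorted yeast were amplified by colony PCR, read by MiSeq 2 × 250 sequencing and filtered on CDR length. These cells carried a synthetic nanobody library in Saccharomyces cerevisiae BJ5465 and were sorted by FACS into low and high (top ~1%) gates on anti-HA and streptavidin fluorescence. Polyreactivity is labelled according to the gate of origin.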

Sequence | polyreactivity (PSR sort gate)
QVHLVESGGGLVQAGGSLRLSCDASGSIFSVNVMGWYRQQPGKERELVAAITSGGSTHYADSVKGRFTISRDNAKNTVYLQMNSLKPEDTAVYDCAARVWYYDYWGQGTQVTVSS | high polyreactivity
QVHLVESGGGLVQAGGSLRLSCPASGIIFVPNAMGWYRQAPGKEREFVAAISRSGTSTYYADSVKGRFTISRDNAKNTVYLQMNSLKPEDTAVYYCAKSAYRSYSAFGYWGQGTQVTVSS | high polyreactivity
QVHLVESGGGLVQAGGSLRLSCPASGRIFYYYTMGCYRQAPGKERELVAAITSGGSTYYADSVKGRFTISRDNAKNTVYLQMYSLKQEDTAVYYCIAEFDEKYDYWGQGTQVTVSS | low polyreactivity
QVHLVESGGGLVQAGGSLRLSFAASGRTFSTNAMGWYRQAPGKERELVAAISSTGGRTYYADSVKGRFTISRDNAKNTVYLQMNSLKPEDTAVYYCNTKLKGKGEGFDYWGQGTQVTVSS | high polyreactivity
QVHLVESGGGLVQAGGSLRLSSAASGITFGWYAMGWYRQAPGKERELVAAIDRGGSTYYADSVKGRFTISRDNAKITVYLQMNSLKPEDTAVYYCAVELRLRYGYDYWGQGTEVTVSS | high polyreactivity
QVHLVESGGGLVQAGGSLRLSSAPSGLTLETNAMGWSRQAPGKERELVAGITYSGGTTYYADSVKGRFTISRDNAKNTVYLQMNSLKPEDTAVYYCAAHTSTSGHNFWGQGTQVTVSS | low polyreactivity
QVHLVESGGGLVQAGGSLRLSSDASGSTFHPYAMGLYRQAPGKERELVAAISWTGGRTYYADSVKGRFTISRDYAKNTVYLQMNRLKREDTAVYYCAARTYGKVGYWGQGTQVTVSS | high polyreactivity
QVHLVESGGGLVQAGGSLRLSSSASGIIFGRNTMGWYRQAPGKEREMVAAITSSGITYYADSVKGRFTISRDNAKNTVYFQMNSLKPEDTAVYYCYSDWTYADPNEYGYWGQGTQVTVSS | low polyreactivity
QVHLVESGGGLVQAGGSLRLTCAASGGIFHINAMGWYRQAPGKERELVAAITRTTITYADSVKGRFTISRDNAKYTVYLQMNRLKLEDSAVYYCAARDKRTPSGVEITGYDYWGQGSQVTVSS | low polyreactivity
QVHLVESGGGLVQAGGSLRLTCAASGSIFAYYTMGWYRQEPGKERELVAAISRTGTSTFYADSVKGRFTISRDNAKNTVDLQMNSLKPEDTSVYYCIAVAPGKYNHWGQGTQVTVSS | high polyreactivity
QVHLVESGGGLVQAGGSLRLTCAASGSIFPYNAMGWYRQSPGEFVAAISYSSGSTYYADSVQGRFTISRDNAKYTVYLQMNCVIPDVTAVYYCAAGSWYPPSYVWLGRYDYWGQGTQVTVSS | low polyreactivity
QVHLVESGGGLVQAGGSLRLTSAASGRIFGRNAMGWYRQAPGKEREFVAAISRSGASRYYADSVKGRFTISRDNAKNTVYLQMNRLKPEDTAVYYCARTTRQSSAYTYSDEYDYWGQGTQVTVSS | high polyreactivity
QVHLVESGGGLVQAGRSLRLICAASGSTFDYYAMGWYRQAPGKERELVAGIDSAGSTNYADSVKGRFTISRDNAKNTVYLQMNSLKTGRYRGLYCNVGKTITTYAFPTFDYWRQGTQVTVSS | low polyreactivity
QVHLVESGGGLVQAGRSLRLSCAASGITFVKYAMGCYIQAPGKEMELVATISNSGGSTYYSDSVKGRFTISRDNAKNSVYLQMNSLKPEETAVYYCNALYLVYCDDSSPSLVSEYGYWGQGTQVTVSS | low polyreactivity
QVHLVESGGGLVQAGVSLRLSCAASGFTFYRNAMGWYRQAPGKERELVAAISSRGGSTYYADSVKGRFTISRYNANNTVYFQMNSLKPEDTAVYYCAAYGNYNEYDYWGPGTQVTVSS | high polyreactivity
QVHLVESGGGLVQAGVSLRLSCAASGSIFRINGMGWYRQAPGKERELVAAITRSGGSTFYADSVKGRFTISRDTAKNTVYLQMNSLKPEETAVYYCAAVWYYSTVPARYEYWGQGTQVTVSS | low polyreactivity
QVHLVESGGGLVQEGGSLLLSCAASGSIFQIYTMGRYRQAPGKERELVAAISSSVSTNYADSVKGRFTISRDNAKNTVYLQMHTLKPEDTAVYYCNRDDYNTADRDASGYWGQGTQVTVSS | low polyreactivity
QVHLVESGGGLVQPGGSLRLSCAASGNTFQSYARGWYRQAPRKEREFVAAIRQSGGSTYYAESLKGRFTISRDNSKYSVYLLMKRLKPEDTAVYYCGTGRSRVYNGRGDYWGQGTQVNVSS | high polyreactivity
QVHLVESGGRLVLAGGSLRLSCAASRRIFDLNAMRGYIQAPGKERELFAAITNTGSTNYADSVKGRFTISRDNAKNTVYLQMNSLKPEDTAVYYCARTYWLRYFGYRDDEYDYWGQGTQVTVSS | low polyreactivity
QVHLVESGGRLVQAGGSLRLRCAASGRTFIANVMGLYRQAPRKETELVAAISTRGGSTYYADSVKGRFTISRDYAKYTVYLHMNRLKPEDTAVDYCAAYYPAQRGFNSWGQGTQVTVSS | high polyreactivity
QVHLVESGGVLVQAGGSLRLSCAASGRIFSYYAMGWYRQAPGKEREMVAAISWTVGSTYYADSVKGRFTISRDNAINTVYLQMNSLYPEDTAVFYCAAAYGWSWYRYDYWGQGTQVTVSS | high polyreactivity
QVHLVESGVGLVKAGGTLRLSCAASGGIFIRNAMGWYRQAPGKERELVATISNAGSTYADAVKGRFTISRDNAKNPVHLQMHSLKPEDTAVYYCNRDDWTYPVYQGLQEYDYWGQGTQVSVSS | low polyreactivity

Sequence | polyreactivity (PSR sort gate)
QVHLVESGVGLVQAGGSLRLSCAASGYTFPAYAMGRYRQAPVKERELVAGISSGGRTYYAYSVKGRFTISRDNAKNTVYLQMNSLKPEDTAVYYCAAFRFYWQSPERYYYWGQGTQVSVSS | high polyreactivity
QVHLVESGVGLVQAGGSRRLSCAASGVIFTGYAMGRYRHAPGKDRELVAAISSSGTSTYYADSVKGRFTISRDNAKYTVYLQINSLKPEDTAVYYCARVSKRTWSGYYFLGQGTQVTVSS | high polyreactivity
QVHLVESRGVLVQAGGSLRLSCAASGRTFPSYTMGWYRQAPGKERELVAAITWTGGSTYYADSVKGRFTISRDNAKNTVYFQMNSLKPDDTAVYYCADYDYWGQGTQVTVSS | low polyreactivity
QVHLVESVGGLVQAGGSLRLSCAASGFILAVYVLGWYRQAPGKDRELVAAISWSGGSTYYADSVKGRFTISRDNAKNTVYLQMNSLKPEATAVYYCNTVAKSPVKYDYWGQGTQVTVSS | high polyreactivity
QVHLVESVGGLVQAGGSLRLSCAASGFIYKPYAMGWYRQAPGKERELVAAITVNGCTTYYADSVKARFTISRDNAKNTVYLQMNSLKPEDTAVYYCNRGSPGGPSWYHYDYWGQGTQVTVSS | high polyreactivity
QVHLVESVGGLVQAGGSLRLSCAGSGRIFYLNSMGWYRQATGKDRELVAGITNSTTGTYYADSVKGRFKISRDNAKNTVYLQMNSLKAEETAVYYCNTDVAYEEPVETYDYWGQGTQVTVSS | low polyreactivity
QVHLVETGGGLDQAGGSLRLSCAASGYTFKTNDMRAYSPPPGKDREFVAAISAIGASTYYADSVKGRFTISRDTAKNTVYLQMKSLKPEDTAVYYCATGPYPLWYVWTDGYDHWGQGTQVPVSS | low polyreactivity
QVHLVGSGGCLVQAGGSLRLSCAASGITFYYYVMGWYRQSPGKERELVAAINSGGSTNYADSVKGRFTISRDNAKNTVYLQMNSLKPEDTAVYYCNAYTVRSYRFDYWGQGTQVTVSS | high polyreactivity
QVHLVVSGGGLVQAGGSLRLMCAASGSTFKYYVMGWYRQAPGKERELVAAISGSGGSKYYADSVKGRFTISRDNAKNTVYLQMNSLIPEDTAVYYCAAGRLRGPGYYFTFDYWGQGTQVTVSS | high polyreactivity
QVHPVESGGGLVQAGGSIRLSCAASGRIFRRYTMGWYRQAPGHERELVAAITRGGGSTSYADSVKGRFTISRDNAKNTVYLQMNSLKPEDTAVYYCAAQARTSTIRGYDYWGQGTQVTVSS | high polyreactivity
QVHRVVSGGGLVQAGGSLRLSCSAYGFTFYLYAMGWYRQAPGKERELVAAISSGTSTYYADSVKGRFTISRDNAKNTVYLQMNSLKPEDTAVYYCDAATNWGGEYWGHGTQVTVSS | high polyreactivity
QVKIVESVGGLVQSGGSLRLSCAASGRTFHRNARGLYREAPGTEREWVATITTNGGATDYADTVTGRFTSSRDNAKNTFYFHMHSQIPEDTAVYYCSAPFNPRVRPLGSVRMYYWGQGTQVTVSS | low polyreactivity
QVKLEESGGGLVQAGGSLRLTCAASGSTFKYNAMGWYRQAPGKERELVAAISSGGSTNYADSVKGRFTISRDNAMNTVYLQMISLKPEDTAVYYCNADYTYVTAWYYYWGQGTQVTVSS | high polyreactivity
QVKLLESGGGLLQAGGSLRLSCAASGLTFYPYAMAWYRQAPGKERELVATITWSGTTTYYADSVKGRFTISRDNAKNTVYVQMNSLKPEDTAVYYCAADLWEVVTPYVTIDDDYWGQGTQVTVSS | high polyreactivity
QVKLLESVGGLVQAGGSLRLSCMASGSILGDRMSWYRQPPGKEHELVATIYDGGITYYADSMKGRFTISRDNAKNTVYLQMNSLRPEDTAVYYCGASLEGYRYHVYCGQGTQVTVSS | low polyreactivity
QVKLQESGGGLVQAGGSLRLSCAASGYISHADEMGWYRQAPGKEHELVASISNGGSTNYADSVKGRFTISRDNAKNTVYLQMNSLKWEDTAVYYWAAWTGQVDIHYYWGQGTQVTVSS | low polyreactivity
QVKLVDSGGGLVQAGGSLRLSCAASGRTFWNYAMGWYRQAPGKERELVAVIRFSDGSTYYADSVKGRFTISRDNAKNTVYLQMNSLKPEDTAVYYCAAKGPRRWGSGFDYWGQGTQVTVSS | low polyreactivity
QVKLVDSGGGLVQAGGSLRLTCAASGITFDKYAMGWYRQAPGKERELVAAITKSSGSTYYADSVKGRFTISRVNAKNTDYLQMNSLKAEDTAVYYCAAGIVYCEYFWGQGTQVTVSS | high polyreactivity
QVKLVDTGGGLVKAGGSLLLSCAASGSPFVWYGMGWYRQSHGKEREFDAAISTSGGRTYYADSVKGRFTISRDNAKNTVYLQMNSLKPEDTAVYYCARQPRLYFKGKLYGYWGQGTQVTVSS | high polyreactivity
QVKLVESAAGLVQAGGSLRLSCDASGFTFALYANGLYIQAPRKERELVAVITYCGGRTYYADSVKGRFTISRVNAKNTVYLLMYSLKPEDTAVYYCNARYRQKGLYGTAFDYWGQGTQVTVSS | high polyreactivity
QVKLVESAGGLVQAGGSLRLSCSASAFIFGFNAMGWYRQEPGKERELVAAITWRGGRTSNADSVKGRFTISRDNAKNTVYLQMNSLKPEDTAVYYCAARRGTIVTRSRGYNYWGQGTQVTVSS | high polyreactivity

— the nanobody polyreactivity screen of Harvey et al. (2022)
